Test results as given in ChEMBL document CHEMBL5649167, “The SUV4-20 inhibitor A-196 verifies a role for epigenetics in genomic integrity” (Nat Chem Biol, 2017).

Key:
[1] = test system: Clc1cc2c(NC3CCCC3)nnc(-c3ccncc3)c2cc1Cl; details: Homo sapiens; time 2.0 hrs
[2] = test system: Clc1cc2c(NC3CCCC3)nnc(-c3ccncc3)c2cc1Cl; details: Homo sapiens; time 2.0 hrs; remark: listed apart in the source

Histone-lysine N-methyltransferase KMT5B (Homo sapiens), Q4FZB7, sequence (Q4FZB7 whole entry): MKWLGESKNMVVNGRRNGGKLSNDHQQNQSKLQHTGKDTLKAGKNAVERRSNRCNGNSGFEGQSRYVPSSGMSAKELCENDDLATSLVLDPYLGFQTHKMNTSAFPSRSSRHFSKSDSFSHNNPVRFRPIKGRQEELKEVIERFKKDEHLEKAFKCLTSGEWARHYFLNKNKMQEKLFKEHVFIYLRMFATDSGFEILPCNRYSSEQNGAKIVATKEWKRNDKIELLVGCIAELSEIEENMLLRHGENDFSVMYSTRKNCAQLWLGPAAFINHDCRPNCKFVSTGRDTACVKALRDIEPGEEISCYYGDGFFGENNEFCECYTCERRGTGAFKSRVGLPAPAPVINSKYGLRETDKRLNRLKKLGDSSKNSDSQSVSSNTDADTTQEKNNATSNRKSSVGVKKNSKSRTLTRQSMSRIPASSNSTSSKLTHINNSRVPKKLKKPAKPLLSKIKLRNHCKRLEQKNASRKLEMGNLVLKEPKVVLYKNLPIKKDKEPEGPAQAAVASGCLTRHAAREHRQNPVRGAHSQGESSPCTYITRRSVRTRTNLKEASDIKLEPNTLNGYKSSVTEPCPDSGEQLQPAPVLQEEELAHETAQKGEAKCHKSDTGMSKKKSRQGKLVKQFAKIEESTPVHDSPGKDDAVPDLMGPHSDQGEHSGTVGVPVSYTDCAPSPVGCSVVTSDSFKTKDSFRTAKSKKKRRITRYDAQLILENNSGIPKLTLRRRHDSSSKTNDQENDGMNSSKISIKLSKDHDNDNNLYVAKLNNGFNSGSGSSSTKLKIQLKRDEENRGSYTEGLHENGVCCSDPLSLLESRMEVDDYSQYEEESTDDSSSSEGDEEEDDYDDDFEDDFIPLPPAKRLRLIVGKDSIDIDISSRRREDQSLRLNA

Substance: Histone-lysine N-methyltransferase KMT5B (Homo sapiens), Q4FZB7
- Km [1]: 0.0748 µM
- Km [2]: 0.0278 µM
